Among the data in US20230280343A1 are Kd values, retold here.

For this assay, the target named is p300 (UniProt Q09472). Description: not stated; comparator to the H-MAP-1 ELISA. (ELISA stands for enzyme-linked immunosorbent assay.)
Chain of p300 (Q09472 323-423 limits assumed): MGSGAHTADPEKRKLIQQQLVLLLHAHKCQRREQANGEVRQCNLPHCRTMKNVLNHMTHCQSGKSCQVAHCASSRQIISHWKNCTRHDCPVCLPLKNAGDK

Consider “native HIF1α protein (from UniProt Q16665 786-826)”, for which the Kd – broadly, the constant that tells how readily two partners part at equilibrium – was 0.38 nM.
